Measured values as given in publication PMC11903765, “ARR1 and AHP interactions in the multi-step phosphorelay system” (Frontiers in Plant Science, 2025).
Each block holds one molecule with its values, some of them ahead of it.

How the values were obtained:
[1] = target: biotinylated ARR1-REC-GARP (ARR1 residues 1-296), construct for BLI (Arabidopsis thaliana) (UniProt Q940D0); test: BLI; biotinylated ARR1-REC-GARP immobilised on Octet SA biosensors, AHPs as analytes; fit of the steady-state data; 20 mM HEPES/NaOH pH 7.0, 50 mM NaCl, 50 mM KCl, 0.5 mM TCEP, 0.5% BSA, 0.05% Tween 20; 25°C
[2] = target: biotinylated ARR1-REC-GARP (ARR1 residues 1-296), construct for BLI (Arabidopsis thaliana) (UniProt Q940D0); test: BLI; biotinylated ARR1-REC-GARP immobilised on Octet SA biosensors, AHPs as analytes; fit of the binding kinetics; 20 mM HEPES/NaOH pH 7.0, 50 mM NaCl, 50 mM KCl, 0.5 mM TCEP, 0.5% BSA, 0.05% Tween 20; 25°C
[3] = target: T1, biotinylated ARR1-REC-GARP (ARR1 residues 1-296), construct for BLI (Arabidopsis thaliana, UniProt Q940D0 1-296, biotin on the Avi-tag (by co-expressed BirA)); test: as above; conditions: both partners purified
T1 construct: ARR1, Arabidopsis thaliana, UniProt Q940D0, residues 1-296 (REC domain and GARP motif); cloned into pMCSG62, which provides the Avi-tag; The results define ARR1-RG as 38-296; the methods give 1-296 for the BLI construct; also called ARR1-RG; biotinylated variant of ARR1-RG; source: E. coli BL21 Gold, co-expressed with BirA, purified (Ni-NTA)
T1 sequence (looked up): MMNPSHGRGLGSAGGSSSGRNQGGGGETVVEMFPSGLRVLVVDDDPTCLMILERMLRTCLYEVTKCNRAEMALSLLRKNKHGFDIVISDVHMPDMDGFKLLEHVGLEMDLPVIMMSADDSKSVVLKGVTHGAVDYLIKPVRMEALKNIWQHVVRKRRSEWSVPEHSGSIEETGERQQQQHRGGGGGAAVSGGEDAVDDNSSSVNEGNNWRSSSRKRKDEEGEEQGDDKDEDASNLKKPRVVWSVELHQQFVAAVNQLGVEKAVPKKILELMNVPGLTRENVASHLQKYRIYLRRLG

[4] = target: T1, biotinylated ARR1-REC-GARP (ARR1 …); test: BLI; biotinylated ARR1-REC-GARP immobilised on Octet SA biosensors, AHPs as analytes; fit of the steady-state data; 20 mM HEPES/NaOH pH 7.0, 50 mM NaCl, 50 mM KCl, 0.5 mM TCEP, 0.5% BSA, 0.05% Tween 20; 25°C; conditions: both partners purified
[5] = target: T2, ARR1-REC-GARP (ARR1 residues 38-296), construct for structural studies (Arabidopsis thaliana, UniProt Q940D0 38-296); test: crystal structure; complex from mixing 1 ARR1 : 1.5 AHP1, purified by SEC; crystals from Morpheus G11, pH 8.5, 32.5 mg/mL; 2.9 Å; two complexes in the asymmetric unit; conditions: both partners purified
T2 construct: ARR1, Arabidopsis thaliana, UniProt Q940D0, residues 38-296: REC domain (38-158), linker (159-235, not visible in the map), GARP motif (236-296); cloned into pMCSG53; TEV protease was not able to cleave the His-tag, so it stayed on the protein; also called ARR1-RG; source: E. coli BL21 Gold, purified (Ni-NTA; then SEC of the complex)
T2 sequence (looked up): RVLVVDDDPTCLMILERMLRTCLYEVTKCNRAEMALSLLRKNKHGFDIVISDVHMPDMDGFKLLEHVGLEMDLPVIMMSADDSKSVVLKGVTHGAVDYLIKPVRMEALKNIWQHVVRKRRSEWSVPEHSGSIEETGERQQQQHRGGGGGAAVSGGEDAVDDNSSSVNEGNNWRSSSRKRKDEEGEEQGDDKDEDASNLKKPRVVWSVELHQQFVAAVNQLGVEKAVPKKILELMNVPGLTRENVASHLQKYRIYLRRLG

Molecule: AHP2 (Arabidopsis histidine-containing phosphotransfer protein 2) (natural protein)
- Kd [1]: 160 nM
- Kd [2]: 160 nM
- koff [2]: 0.0913 s⁻¹
- kon [2]: 573000 M⁻¹ s⁻¹

Molecule: AHP3 (Arabidopsis histidine-containing phosphotransfer protein 3) (natural protein)
- Kd [1]: 175 nM
- Kd [2]: 174 nM
- koff [2]: 0.0917 s⁻¹
- kon [2]: 522000 M⁻¹ s⁻¹

More lines, now with the values ahead:

- Kd [1]: 170 nM
- Kd [2]: 166 nM
- koff [2]: 0.06 s⁻¹
- kon [2]: 360000 M⁻¹ s⁻¹
Molecule: AHP4 (Arabidopsis histidine-containing phosphotransfer protein 4) (natural protein)

- Kd [1]: 150 nM
- Kd [2]: 152 nM
- koff [2]: 0.089 s⁻¹
- kon [2]: 588000 M⁻¹ s⁻¹
Molecule: AHP5 (Arabidopsis histidine-containing phosphotransfer protein 5) (natural protein)

- Kd [3]: 94 nM
- koff [3]: 0.0423 s⁻¹
- kon [3]: 444000 M⁻¹ s⁻¹
- Kd [4]: 94 nM
- stoichiometry N [5]: 1
B1: AHP1 (Arabidopsis histidine-containing phosphotransfer protein 1), full length (natural protein, Arabidopsis thaliana, UniProt Q9ZNV9 1-154, looked up)
chain: MDLVQKQKSLQDYTKSLFLEGILDSQFLQLQQLQDESNPDFVSQVVTLFFQDSDRILNDLSLSLDQQVVDFKKVDPHVHQLKGSSSSIGAQRVKNACVVFRSFCEQQNVEACHRCLQQVKQEYYLVKNRLETLFKLEQQIVASGGMIPAVELGF
notes: AHP1, Arabidopsis thaliana, UniProt Q9ZNV9, full-length protein cloned from A. thaliana cDNA into pMCSG53; Unphosphorylated; source: E. coli BL21 Gold, purified (Ni-NTA, TEV digestion, second Ni-NTA, SEC)
